Columns and labels:
[1] = target: recombinant human integrin α6β4 (human) (UniProt P23229); experiment: SPR; Biacore T200; integrin α6β4 or α6β1 immobilised by EDC/NHS coupling on CM5 chips (about 16000 RU); seven 2-fold dilutions of PB injected 120 s at 30 µl/minute, 120 s dissociation; 10 mM HEPES, 150 mM NaCl, 1 mM CaCl2, 1 mM MgCl2, 0.05% P20, pH 7.4; 25 °C
[2] = target: recombinant human integrin α6β1 (human) (UniProt P23229); experiment: as above
[3] = target: HAdV-41 penton base protein, recombinant, soluble (human adenovirus type 41 (HAdV-41)); experiment: gas-phase electrophoretic mobility macromolecular analysis (GEMMA)
[4] = target: HAdV-41 penton base protein, recombinant, soluble (human adenovirus type 41 (HAdV-41)); experiment: negative-stain electron microscopy

recombinant human integrin α6β4 (human), sequence (P23229 24-1130, chain 1 of 2): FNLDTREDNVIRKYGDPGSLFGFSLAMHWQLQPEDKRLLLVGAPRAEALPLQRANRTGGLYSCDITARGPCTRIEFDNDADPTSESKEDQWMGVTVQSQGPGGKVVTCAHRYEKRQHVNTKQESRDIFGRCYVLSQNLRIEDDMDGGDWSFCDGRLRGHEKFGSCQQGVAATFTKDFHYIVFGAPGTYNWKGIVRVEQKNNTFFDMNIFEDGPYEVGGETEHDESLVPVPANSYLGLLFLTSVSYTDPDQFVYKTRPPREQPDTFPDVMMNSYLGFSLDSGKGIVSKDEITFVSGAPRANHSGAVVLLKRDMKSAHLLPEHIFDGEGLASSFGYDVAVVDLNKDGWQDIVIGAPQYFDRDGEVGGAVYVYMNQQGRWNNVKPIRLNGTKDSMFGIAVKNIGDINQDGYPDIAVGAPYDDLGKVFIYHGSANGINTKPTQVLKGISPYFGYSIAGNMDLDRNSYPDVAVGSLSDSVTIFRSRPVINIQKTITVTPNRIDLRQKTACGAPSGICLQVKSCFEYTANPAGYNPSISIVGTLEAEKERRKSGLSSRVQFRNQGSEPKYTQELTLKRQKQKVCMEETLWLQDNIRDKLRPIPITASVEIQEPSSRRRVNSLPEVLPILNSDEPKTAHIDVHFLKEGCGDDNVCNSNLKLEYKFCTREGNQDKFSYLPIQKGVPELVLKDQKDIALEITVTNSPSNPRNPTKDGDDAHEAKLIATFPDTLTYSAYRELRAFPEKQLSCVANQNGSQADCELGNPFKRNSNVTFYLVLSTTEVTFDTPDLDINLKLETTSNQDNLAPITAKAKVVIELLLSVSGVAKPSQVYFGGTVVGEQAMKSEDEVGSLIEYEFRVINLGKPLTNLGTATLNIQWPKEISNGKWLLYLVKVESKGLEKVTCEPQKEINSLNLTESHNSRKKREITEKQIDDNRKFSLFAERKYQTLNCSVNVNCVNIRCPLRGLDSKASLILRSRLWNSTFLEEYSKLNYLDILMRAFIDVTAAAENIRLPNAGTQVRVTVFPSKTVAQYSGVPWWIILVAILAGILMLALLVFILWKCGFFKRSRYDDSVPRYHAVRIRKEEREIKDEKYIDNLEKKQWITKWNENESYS
recombinant human integrin α6β4 (human), sequence (P16144 28-710, chain 2 of 2, further chain): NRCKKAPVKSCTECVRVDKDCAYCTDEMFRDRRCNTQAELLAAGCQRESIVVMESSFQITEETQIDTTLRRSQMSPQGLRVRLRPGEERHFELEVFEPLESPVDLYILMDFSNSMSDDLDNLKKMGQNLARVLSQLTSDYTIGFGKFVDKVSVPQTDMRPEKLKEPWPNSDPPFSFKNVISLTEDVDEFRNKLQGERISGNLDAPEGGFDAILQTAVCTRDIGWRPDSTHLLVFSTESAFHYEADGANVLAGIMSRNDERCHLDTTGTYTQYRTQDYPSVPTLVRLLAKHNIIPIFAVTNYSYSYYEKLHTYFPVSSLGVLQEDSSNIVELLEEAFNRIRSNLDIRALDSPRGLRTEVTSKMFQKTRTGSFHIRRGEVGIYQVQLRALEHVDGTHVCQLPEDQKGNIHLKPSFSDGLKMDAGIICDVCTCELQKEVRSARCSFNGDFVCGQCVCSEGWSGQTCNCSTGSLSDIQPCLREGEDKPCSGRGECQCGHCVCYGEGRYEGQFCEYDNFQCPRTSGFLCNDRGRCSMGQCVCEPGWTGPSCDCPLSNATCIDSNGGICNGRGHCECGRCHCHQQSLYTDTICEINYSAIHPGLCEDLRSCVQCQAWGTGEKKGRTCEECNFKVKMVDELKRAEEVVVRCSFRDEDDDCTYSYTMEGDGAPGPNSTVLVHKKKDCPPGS

## HAdV-5 penton base protein, recombinant, soluble (from UniProt P12538 1-571) (natural protein)
[1]
  fold lower affinity than 40PB and 41PB: 3 fold
[2]
  fold lower affinity than 40PB and 41PB: 3 fold

## HAdV-40 penton base protein, recombinant, soluble (natural protein)
[2]
  fold lower affinity than to α6β4: 10 fold
  koff: 0.1 s⁻¹

## HAdV-41 penton base protein, recombinant, soluble (natural protein)
[2]
  fold lower affinity than to α6β4: 10 fold
  kon: 10000 M⁻¹ s⁻¹
[3]
  stoichiometry N: 5
[4]
  stoichiometry N: 5
